Results: publication PMC6007307
Several values for one entry are separate records, joined by “and”; a condition that tells them apart may be missing. Identical values can stand only once.

Columns and labels:
[1] = target: IFIT2 (recombinant) (human) (UniProt P09913); assay: SEC-MALS; each protein alone at varying concentrations; Superdex 200 Increase 10/300, room temperature, 20 mM Tris pH 7.5, 150 mM KCl, 1 mM DTT
[2] = target: IFIT2 (recombinant) (human) (UniProt P09913); assay: SEC-MALS; equal amounts of IFIT2 and IFIT3 mixed and incubated at 4°C for 1 h, SEC buffer
[3] = tested on: IFIT1 (human); assay: primer extension inhibition (toeprinting); conditions: 5' cap0 (m7GpppN, no 2'-O-methylation; ScriptCap); Toeprinting at equilibrium, [IFIT1] >= 10x [mRNA]; binding buffer, salt, pH and temperature not in the material (complexes assembled in 20 mM Tris pH 7.5 …)
[4] = tested on: IFIT1;IFIT2;IFIT3 (human;human;human); assay: primer extension inhibition (toeprinting); conditions: 5' cap0 (m7GpppN, no 2'-O-methylation; ScriptCap); Toeprinting at equilibrium, [IFIT1] >= 10x [mRNA]; binding buffer, salt, pH and temperature not in the material (complexes assembled in 20 mM Tris pH 7.5 …)
[5] = tested on: IFIT1;IFIT3 (human;human); assay: primer extension inhibition (toeprinting); conditions: 5' cap0 (m7GpppN, no 2'-O-methylation; ScriptCap); Toeprinting at equilibrium, [IFIT1] >= 10x [mRNA]; binding buffer, salt, pH and temperature not in the material (complexes assembled in 20 mM Tris pH 7.5 …)

IFIT2 (recombinant), sequence (P09913 whole entry): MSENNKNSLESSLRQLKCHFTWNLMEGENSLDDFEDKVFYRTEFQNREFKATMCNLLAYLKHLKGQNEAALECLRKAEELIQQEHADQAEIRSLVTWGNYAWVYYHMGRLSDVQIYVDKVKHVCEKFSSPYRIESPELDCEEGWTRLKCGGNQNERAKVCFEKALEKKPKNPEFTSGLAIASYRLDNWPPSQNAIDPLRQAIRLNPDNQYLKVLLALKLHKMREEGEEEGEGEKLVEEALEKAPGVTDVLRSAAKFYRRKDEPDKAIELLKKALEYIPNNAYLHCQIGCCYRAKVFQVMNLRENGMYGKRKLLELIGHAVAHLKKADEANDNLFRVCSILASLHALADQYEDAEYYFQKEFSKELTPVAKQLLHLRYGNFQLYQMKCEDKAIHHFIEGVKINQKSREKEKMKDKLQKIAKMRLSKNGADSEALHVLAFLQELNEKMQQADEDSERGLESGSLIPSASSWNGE

Substance | stoichiometry N [1] | stoichiometry N [2] | K half [3] | K half [4] | K half [5]
IFIT2 (recombinant) (from UniProt P09913 1-472) (natural protein) | 2 and 4 | 2 | – | – | –
cap0-β-globin Fluc mRNA | – | – | 40 nM | 19 nM | 19 nM
